# Test results taken from patent US20090099087A1 (STC UNM, published 2009).
# Numbering of substitutions follows the chain as printed. Numbers in names are those of the source.
# B1: wild-type first Kunitz-type domain (KD1) of human TFPI-2, His-tagged, E. coli (other)
# chain: DAAQEPTGNNAEICLLPLDYGPCRALLLRYYYDRYTQSCRQFLYGGCEGNANNFYTWEACDDACWRIEKVPKV
# notes: the monomer was purified; also called wild-type KD1; TFPI-2 KD1; not shown: N-terminal decahistidine-tag leader and enterokinase cleavage site from pET19b
# B2: D19A KD1 (other)
# chain: B1 chain with D19A
# notes: Point mutant of His-tagged KD1, KD1 numbering; also called D19A (D10A); not shown: N-terminal decahistidine-tag leader and enterokinase cleavage site from pET19b
# B3: L26Q KD1 (other)
# chain: B1 chain with L26Q
# notes: Point mutant of His-tagged KD1, KD1 numbering; also called L26Q (L17Q); not shown: N-terminal decahistidine-tag leader and enterokinase cleavage site from pET19b
# B4: recombinant human tissue factor pathway inhibitor-2 (TFPI-2), full-length (other)
# chain: DAAQEPTGNNAEICLLPLDYGPCRALLLRYYYDRYTQSCRQFLYGGCEGNANNFYTWEACDDACWRIEKVPKVCRLQVSVDDQCEGSTEKYFFNLSSMTCEKFFSGGCHRNRIENRFPDEATCMGFCAPKKIPSFCYSPKDEGLCSANVTRYYFNPRYRTCDAFTYTGCGGNDNNFVSREDCKRACAKALKKKKKMPKLRFASRIRKIRKKQF
# notes: Eukaryotically expressed recombinant full-length protein, described as a 213 amino acid polypeptide and prepared by a published method (Sprecher et al.); also called full-length TFPI-2; intact TFPI-2
# B5: R29D KD1 (other)
# chain: B1 chain with R29D
# notes: Point mutant of His-tagged KD1, KD1 numbering; also called R29D (R20D); not shown: N-terminal decahistidine-tag leader and enterokinase cleavage site from pET19b
# B6: F42A KD1 (other)
# chain: B1 chain with F42A
# notes: Point mutant of His-tagged KD1, KD1 numbering; also called F42A (F33A); not shown: N-terminal decahistidine-tag leader and enterokinase cleavage site from pET19b
# B7: R29K KD1 (other)
# chain: B1 chain with R29K
# notes: Point mutant of His-tagged KD1, KD1 numbering; also called R29K (R20K); not shown: N-terminal decahistidine-tag leader and enterokinase cleavage site from pET19b
# B8: R29A KD1 (other)
# chain: B1 chain with R29A
# notes: Point mutant of His-tagged KD1, KD1 numbering; also called R29A (R20A); not shown: N-terminal decahistidine-tag leader and enterokinase cleavage site from pET19b
# B9: G21D KD1 (other)
# chain: B1 chain with G21D
# notes: Point mutant of His-tagged KD1, KD1 numbering; also called G21D (G12D); not shown: N-terminal decahistidine-tag leader and enterokinase cleavage site from pET19b
# B10: R24Q KD1 (other)
# chain: B1 chain with R24Q
# notes: Point mutant of His-tagged KD1, KD1 numbering; also called R24Q (R15Q); not shown: N-terminal decahistidine-tag leader and enterokinase cleavage site from pET19b
# B11: R24K KD1 (other)
# chain: B1 chain with R24K
# notes: also called R24K (R15K); R24K KD1 polypeptide; not shown: N-terminal extension from the expression vector
# B12: Y20A KD1 (other)
# chain: B1 chain with Y20A
# notes: Point mutant of His-tagged KD1, KD1 numbering; also called Y20A (Y11A); not shown: N-terminal decahistidine-tag leader and enterokinase cleavage site from pET19b
# Target: T1, porcine trypsin (porcine, UniProt P00761 9-231)
# Test: chromogenic amidolytic inhibition assay, trypsin; reference BPTI
# Procedure: (§1) Trypsin and plasmin inhibition assays were performed as described elsewhere (Petersen et al., Biochemistry, 35:266-272, 1996). Briefly, trypsin and plasmin were incubated with various concentrations of inhibitor preparations for 15 minutes at 37° C. in a 96-well microtitration plate. The chromogenic substrate S-2251 was then added and residual amidolytic activity was measured in a Molecular Devices UVₘₐₓ kinetic microplate reader.
# T1 sequence (P00761 9-231 limits assumed): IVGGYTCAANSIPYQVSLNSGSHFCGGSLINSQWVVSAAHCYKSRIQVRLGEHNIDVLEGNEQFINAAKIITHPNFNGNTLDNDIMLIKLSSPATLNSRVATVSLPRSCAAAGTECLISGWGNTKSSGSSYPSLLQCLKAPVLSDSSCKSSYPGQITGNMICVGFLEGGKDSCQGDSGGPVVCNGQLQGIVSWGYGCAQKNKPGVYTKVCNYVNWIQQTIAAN
row,Binder,fold less potent than BPTI
1,B1,2 fold

# Target: T2, human plasmin (human, UniProt P00747 97-810, limits assumed)
# Test: chromogenic amidolytic inhibition assay, plasmin; reference wild-type KD1
# Procedure: as §1
# T2 sequence (P00747 97-810 limits assumed): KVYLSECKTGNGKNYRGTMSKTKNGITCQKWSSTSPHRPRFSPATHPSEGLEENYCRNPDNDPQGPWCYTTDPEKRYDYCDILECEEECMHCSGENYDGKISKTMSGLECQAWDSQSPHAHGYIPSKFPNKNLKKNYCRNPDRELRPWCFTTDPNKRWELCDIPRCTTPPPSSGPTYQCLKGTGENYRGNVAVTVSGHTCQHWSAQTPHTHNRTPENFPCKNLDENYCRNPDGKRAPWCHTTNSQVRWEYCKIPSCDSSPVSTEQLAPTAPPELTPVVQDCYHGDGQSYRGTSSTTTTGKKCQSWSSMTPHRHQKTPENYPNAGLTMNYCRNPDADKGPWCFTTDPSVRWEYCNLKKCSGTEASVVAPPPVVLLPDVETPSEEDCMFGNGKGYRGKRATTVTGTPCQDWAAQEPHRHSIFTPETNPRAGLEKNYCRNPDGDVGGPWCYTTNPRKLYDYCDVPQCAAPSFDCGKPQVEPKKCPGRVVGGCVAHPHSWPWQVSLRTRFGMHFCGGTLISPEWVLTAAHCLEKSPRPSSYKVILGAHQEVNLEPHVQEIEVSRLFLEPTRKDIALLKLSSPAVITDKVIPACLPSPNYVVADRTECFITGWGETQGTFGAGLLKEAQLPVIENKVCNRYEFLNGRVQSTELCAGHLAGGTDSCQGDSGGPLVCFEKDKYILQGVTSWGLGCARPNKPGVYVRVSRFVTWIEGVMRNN
row,Binder,fold loss of inhibitory activity (against wild-type KD1)
1,B2,~40 fold

# Target: T2, human plasmin
# Test: chromogenic amidolytic inhibition assay, plasmin; reference BPTI
# Procedure: as §1
row,Binder,fold higher Ki than BPTI
1,B1,~3 fold

# Target: T1, porcine trypsin
# Test: chromogenic amidolytic inhibition assay, trypsin; reference full-length TFPI-2
# Procedure: as §1
row,Binder,fold higher inhibitory activity than full-length TFPI-2
1,B1,~2 fold

# Target: T3, factor VIIa-tissue factor complex (human recombinant factor VIIa with recombinant soluble human tissue factor) (human, UniProt P08709 61-466; P13726 33-251, limits assumed)
# T3 construct: The complex was formed from 50 nM factor VIIa and 100 nM soluble tissue factor in 5 mM CaCl2; Factor VIIa is itself a two-chain enzyme; also called FVIIa-TF; VIIa-TF
# Test: chromogenic amidolytic inhibition assay; reference wild-type KD1
# Procedure: as §1
# (§2) Recombinant soluble human tissue factor (100 nM) and factor VIIa (50 nM) were incubated in a TBS-BSA buffer/5 mM CaCl₂ for 15 minutes at 37° C. Following this incubation, aliquots (100 μl) were dispensed into a 96-well microtitration plate and treated with serial dilutions of inhibitors dissolved in TBS buffer. After 15 minutes of incubation, 30 μl of S-2288 (final concentration, 1 mM) was added to each well and the absorbance at 405 nm was determined as described earlier.
# T3 sequence (P08709 61-466 limits assumed, chain 1 of 2): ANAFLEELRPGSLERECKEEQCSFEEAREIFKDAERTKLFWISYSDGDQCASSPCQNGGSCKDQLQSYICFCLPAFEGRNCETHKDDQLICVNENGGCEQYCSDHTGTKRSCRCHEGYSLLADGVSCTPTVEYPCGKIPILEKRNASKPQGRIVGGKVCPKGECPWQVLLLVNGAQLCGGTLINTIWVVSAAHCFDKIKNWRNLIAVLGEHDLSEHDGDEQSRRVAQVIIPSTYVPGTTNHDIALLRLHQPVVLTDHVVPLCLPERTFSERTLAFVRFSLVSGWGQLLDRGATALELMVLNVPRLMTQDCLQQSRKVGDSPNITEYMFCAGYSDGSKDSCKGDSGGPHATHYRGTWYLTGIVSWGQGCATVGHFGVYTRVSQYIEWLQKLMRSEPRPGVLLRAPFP
# T3 sequence (P13726 33-251 limits assumed, chain 2 of 2): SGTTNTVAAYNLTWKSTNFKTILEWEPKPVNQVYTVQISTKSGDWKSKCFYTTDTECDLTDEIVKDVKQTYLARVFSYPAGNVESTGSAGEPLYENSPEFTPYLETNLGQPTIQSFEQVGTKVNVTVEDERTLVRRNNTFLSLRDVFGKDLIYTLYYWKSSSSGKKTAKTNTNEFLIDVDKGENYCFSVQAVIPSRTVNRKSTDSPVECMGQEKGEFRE
row,Binder,fold reduction in inhibitory potency (against wild-type KD1)
1,B3,≥ 10 fold

# Target: T2, human plasmin
# Test: as above
# Procedure: as §1, §2
row,Binder,fold reduction in inhibitory potency (against wild-type KD1)
1,B3,≥ 10 fold

# Target: T1, porcine trypsin
# Test: as above
# Procedure: as §1, §2
row,Binder,fold reduction in inhibitory potency (against wild-type KD1)
1,B3,≥ 10 fold

# Target: T3, factor VIIa-tissue factor complex …
# Test: chromogenic (S-2288) amidolytic inhibition assay, FVIIa 50 nM / soluble TF 100 nM
# Procedure: as §2
row,Binder,Ki
1,B4,1910 nM
2,B1,1640 nM
3,B5,44600 nM
4,B2,1960 nM
5,B6,61200 nM
6,B7,1120 nM
7,B8,3930 nM
8,B9,26000 nM
9,B10,55700 nM
10,B3,54000 nM
11,B11,8550 nM
12,B12,1350 nM

# Target: T2, human plasmin
# Test: chromogenic (S-2251) amidolytic inhibition assay, plasmin 30 nM
# Procedure: Example I provides an illustrative example of assessment of the inhibitory activity. […] The chromogenic substrate S-2251 (D-Val-Leu-Lys-p-nitroanilide; DiaPharma Group Inc., West Chester, Ohio) was then added and residual plasmin amidolytic activity was measured at 405 nm in a Molecular Devices UVₘₐₓ kinetic microplate reader.
# as §1
row,Binder,Ki
1,B4,9 nM
2,B1,3 nM
3,B5,261 nM
4,B2,118 nM
5,B6,79 nM
6,B7,5 nM
7,B8,12 nM
8,B9,59 nM
9,B10,48 nM
10,B3,29 nM
11,B11,0.85 nM
12,B12,16 nM

# Target: T1, porcine trypsin
# Test: chromogenic (S-2251) amidolytic inhibition assay, trypsin 50 nM
# Procedure: as §1
row,Binder,Ki
1,B4,21 nM
2,B1,13 nM
3,B5,4600 nM
4,B2,15 nM
5,B6,155 nM
6,B7,20 nM
7,B8,52 nM
8,B9,42 nM
9,B10,296 nM
10,B3,162 nM
11,B11,8 nM
12,B12,8 nM

# Target: T2, human plasmin
# Test: chromogenic amidolytic inhibition assay, plasmin; reference full-length TFPI-2
# Procedure: as §1
row,Binder,fold more potent than full-length TFPI-2
1,B1,3 fold

# Target: T3, factor VIIa-tissue factor complex …
# Test: chromogenic amidolytic inhibition assay, FVIIa-TF; reference wild-type KD1
# Procedure: as §2
row,Binder,fold reduction of inhibitory activity (against wild-type KD1)
1,B11,~5 fold
